{
  "source": "patent US20100260763A1",
  "about": "(DOMANTIS, published 2010)",
  "key": {"[1]": {"biological_target": "T1, human TNFR1, soluble recombinant protein (human, UniProt P19438 22-211, limits assumed, biotinylated in the BIAcore assays (coupling via primary amines))", "T1 construct": "also called biotinylated TNFR1; human recombinant E. coli-expressed human TNFR1", "T1 sequence (looked up)": "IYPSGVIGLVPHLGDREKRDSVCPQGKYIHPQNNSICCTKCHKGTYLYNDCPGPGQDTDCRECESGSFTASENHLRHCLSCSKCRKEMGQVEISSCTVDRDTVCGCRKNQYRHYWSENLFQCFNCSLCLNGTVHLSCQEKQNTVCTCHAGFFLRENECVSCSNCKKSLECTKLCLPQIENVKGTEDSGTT", "assay": "phage ELISA, plate coated with 1 nM TNFR1, anti-M13-HRP; trypsin 1 mg/ml 1 h room temp; phage input 4.51E+10"}, "[2]": {"biological_target": "T1, human TNFR1, soluble recombinant protein", "assay": "phage ELISA, plate coated with 1 nM TNFR1, anti-M13-HRP; trypsin 10 µg/ml 1 h room temp; phage input 2.26E+10"}, "[3]": {"biological_target": "T1, human TNFR1, soluble recombinant protein", "assay": "phage ELISA, plate coated with 1 nM TNFR1, anti-M13-HRP; trypsin 1 mg/ml 1 h room temp; phage input 1.13E+10"}, "[4]": {"biological_target": "T1, human TNFR1, soluble recombinant protein", "assay": "phage ELISA, plate coated with 1 nM TNFR1, anti-M13-HRP; trypsin 1 mg/ml 1 h room temp; phage input 2.82E+09"}, "[5]": {"biological_target": "T1, human TNFR1, soluble recombinant protein", "assay": "phage ELISA, plate coated with 1 nM TNFR1, anti-M13-HRP; trypsin 1 mg/ml 1 h room temp; phage input 7.05E+08"}, "[6]": {"biological_target": "T1, human TNFR1, soluble recombinant protein", "assay": "phage ELISA, plate coated with 1 nM TNFR1, anti-M13-HRP; trypsin 0 µg/ml; phage input 7.05E+08"}, "[7]": {"biological_target": "T1, human TNFR1, soluble recombinant protein", "assay": "phage ELISA, plate coated with 1 nM TNFR1, anti-M13-HRP; trypsin 0 µg/ml; phage input 4.51E+10"}, "[8]": {"biological_target": "T1, human TNFR1, soluble recombinant protein", "assay": "phage ELISA, plate coated with 1 nM TNFR1, anti-M13-HRP; trypsin 10 µg/ml 1 h room temp; phage input 5.64E+09"}, "[9]": {"biological_target": "T1, human TNFR1, soluble recombinant protein", "assay": "phage ELISA, plate coated with 1 nM TNFR1, anti-M13-HRP; trypsin 0 µg/ml; phage input 2.82E+09"}, "[10]": {"biological_target": "T1, human TNFR1, soluble recombinant protein", "assay": "phage ELISA, plate coated with 1 nM TNFR1, anti-M13-HRP; trypsin 1 mg/ml 1 h room temp; phage input 1.41E+09"}, "[11]": {"biological_target": "T1, human TNFR1, soluble recombinant protein", "assay": "phage ELISA, plate coated with 1 nM TNFR1, anti-M13-HRP; trypsin 100 µg/ml 1 h room temp; phage input 1.41E+09"}, "[12]": {"biological_target": "T1, human TNFR1, soluble recombinant protein", "assay": "phage ELISA, plate coated with 1 nM TNFR1, anti-M13-HRP; trypsin 0 µg/ml; phage input 5.64E+09"}, "[13]": {"biological_target": "T1, human TNFR1, soluble recombinant protein", "assay": "phage ELISA, plate coated with 1 nM TNFR1, anti-M13-HRP; trypsin 100 µg/ml 1 h room temp; phage input 3.52E+08"}, "[14]": {"biological_target": "T1, human TNFR1, soluble recombinant protein", "assay": "phage ELISA, plate coated with 1 nM TNFR1, anti-M13-HRP; trypsin 0 µg/ml; phage input 1.13E+10"}, "[15]": {"biological_target": "T1, human TNFR1, soluble recombinant protein", "assay": "phage ELISA, plate coated with 1 nM TNFR1, anti-M13-HRP; trypsin 10 µg/ml 1 h room temp; phage input 4.51E+10"}, "[16]": {"biological_target": "T1, human TNFR1, soluble recombinant protein", "assay": "phage ELISA, plate coated with 1 nM TNFR1, anti-M13-HRP; trypsin 10 µg/ml 1 h room temp; phage input 3.52E+08"}, "[17]": {"biological_target": "T1, human TNFR1, soluble recombinant protein", "assay": "phage ELISA, plate coated with 1 nM TNFR1, anti-M13-HRP; trypsin 0 µg/ml; phage input 2.26E+10"}, "[18]": {"biological_target": "T1, human TNFR1, soluble recombinant protein", "assay": "phage ELISA, plate coated with 1 nM TNFR1, anti-M13-HRP; trypsin 100 µg/ml 1 h room temp; phage input 2.26E+10"}, "[19]": {"biological_target": "T1, human TNFR1, soluble recombinant protein", "assay": "phage ELISA, plate coated with 1 nM TNFR1, anti-M13-HRP; trypsin 10 µg/ml 1 h room temp; phage input 1.41E+09"}, "[20]": {"biological_target": "T1, human TNFR1, soluble recombinant protein", "assay": "phage ELISA, plate coated with 1 nM TNFR1, anti-M13-HRP; trypsin 10 µg/ml 1 h room temp; phage input 1.13E+10"}},
  "data": [
    {"substance": "DOM1h-131 displayed on phage", "values": [
      {"measurement": "phage ELISA read-out", "setting": "[1]", "result": 0.284},
      {"measurement": "phage ELISA read-out", "setting": "[2]", "result": 0.802},
      {"measurement": "phage ELISA read-out", "setting": "[3]", "result": 0.183},
      {"measurement": "phage ELISA read-out", "setting": "[4]", "result": 0.114},
      {"measurement": "phage ELISA read-out", "setting": "[5]", "result": 0.084},
      {"measurement": "phage ELISA read-out", "setting": "[6]", "result": 0.705},
      {"measurement": "phage ELISA read-out", "setting": "[7]", "result": 0.916},
      {"measurement": "phage ELISA read-out", "setting": "[8]", "result": 0.695},
      {"measurement": "phage ELISA read-out", "setting": "[9]", "result": 0.946},
      {"measurement": "phage ELISA read-out", "setting": "[10]", "result": 0.089},
      {"measurement": "phage ELISA read-out", "setting": "[11]", "result": 0.115},
      {"measurement": "phage ELISA read-out", "setting": "[12]", "result": 0.962},
      {"measurement": "phage ELISA read-out", "setting": "[13]", "result": 0.084},
      {"measurement": "phage ELISA read-out", "setting": "[14]", "result": 0.949},
      {"measurement": "phage ELISA read-out", "setting": "[15]", "result": 0.784},
      {"measurement": "phage ELISA read-out", "setting": "[16]", "result": 0.213},
      {"measurement": "phage ELISA read-out", "setting": "[17]", "result": 0.944},
      {"measurement": "phage ELISA read-out", "setting": "[18]", "result": 0.377},
      {"measurement": "phage ELISA read-out", "setting": "[19]", "result": 0.409},
      {"measurement": "phage ELISA read-out", "setting": "[20]", "result": 0.86}
    ]}
  ]
}
